# ± gives the standard deviation of the averaged measurements.
# System: ATP
# Assay: switch fluorescence ratio, 500 uM ATP over buffer (Cy3 cluster intensity, sum of 5 cycles each) (fold (ratio)); higher = stronger signal-on switching upon ATP binding; sequences stand for … in TCGTCGGCAGCGTCAGATGTGTATAAGAGACAGTTTTTTTTTTTTTTTTTTTTTTTTT…TC
# Settings: aptamer strand: ATP DNA aptamer (quencher-CACCTGGGGGAGTATTGCGGAGGAAGG + anchor), 100 nM annealed; ATP concentration: 500 uM
# Summary of the method: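 Five buffer/ATP imaging cycles were run on Cy3-labelled switching-strand clusters on a modified Illumina MiSeq flow-cell, with NaOH stripping and re-annealing between cycles. In each cycle, clusters annealed to 100 nM quencher-labelled ATP aptamer were imaged in selection buffer, then after 15 min with 500 uM ATP at 22 °C. Per cluster, the fluorescence ratio is summed target-cycle over summed buffer-cycle Cy3 intensity, averaged per switch-domain sequence. Only clusters within 100-1000 RFU were kept.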
# 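Note: ATP exposure 15 min at 22 °C before imaging.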
row,Sequence,switch fluorescence ratio
1,ATAATTTGAT,0.983 ± 0.023
2,ATACACGGCG,1.045 ± 0.0087
3,ATACAGCGA,1.066 ± 0.01
4,ATACAGGAAC,1.03 ± 0.038
5,ATACCATTTC,1.03 ± 0.049
6,ATACCCAAGC,1.09 ± 0.011
7,ATACCTAGCT,1.05 ± 0.019
8,ATACGAGATT,1.009 ± 0.0079
9,ATACGCAGGG,1.06 ± 0.061
10,ATACGCTGTT,0.9875 ± 0.0082
11,ATACGGCCCC,1.2 ± 0.1
12,ATACGTGGCA,0.9601 ± 0.0037
13,ATACTATATT,1.05 ± 0.017
14,ATACTATTAT,1.03 ± 0.013
15,ATACTGGGGT,1.04 ± 0.056
16,ATACTTACTT,1.197 ± 0.011
17,ATACTTTATT,1.09 ± 0.034
18,ATACTTTTTT,1.01 ± 0.061
19,ATAGAAGGTG,1.43 ± 0.025
20,ATAGAATGGT,0.9829 ± 0.00046
21,ATAGAATTGG,1.02 ± 0.021
22,ATAGACTTAT,0.9765 ± 0.0093
23,ATAGAGGAGG,1 ± 0.021
24,ATAGAGGCTG,1.04 ± 0.064
25,ATAGAGGGAT,0.98 ± 0.026

row,Sequence,switch fluorescence ratio
1,ATAGAGGGGG,0.996 ± 0.03
2,ATAGATCCTT,0.9996 ± 0.0087
3,ATAGATGAGT,1.012 ± 0.0048
4,ATAGATTGTT,1.39 ± 0.59
5,ATAGCACGTT,1.03 ± 0.025
6,ATAGCAGAAG,1.06 ± 0.012
7,ATAGCAGGCG,1.01 ± 0.027
8,ATAGCGCCGT,1.01 ± 0.011
9,ATAGCTTGTA,0.995 ± 0.037
10,ATAGCTTGTG,0.996 ± 0.023
11,ATAGGACATC,1.03 ± 0.04
12,ATAGGAGTAG,0.993 ± 0.036
13,ATAGGAGTCT,1.09 ± 0.016
14,ATAGGATGAG,1.022 ± 0.0091
15,ATAGGCACAT,1.03 ± 0.029
16,ATAGGCATCA,1.18 ± 0.3
17,ATAGGCGTCG,0.967 ± 0.032
18,ATAGGCTATA,0.976 ± 0.025
19,ATAGGGAGAG,0.987 ± 0.016
20,ATAGGGAGGC,0.967 ± 0.035
21,ATAGGGATTG,0.996 ± 0.031
22,ATAGGGCCGC,1.02 ± 0.034
23,ATAGGGCG,0.987 ± 0.011
24,ATAGGGGGGT,1.02 ± 0.018
25,ATAGGGTACA,1.11 ± 0.052

row,Sequence,switch fluorescence ratio
1,ATAGGTAGGG,0.984 ± 0.0086
2,ATAGGTATGC,1 ± 0.06
3,ATAGGTCAAC,0.992 ± 0.044
4,ATAGTACGCC,1.28 ± 0.33
5,ATAGTAGTAG,0.998 ± 0.011
6,ATAGTAGTGT,0.998 ± 0.015
7,ATAGTATAAG,1.002 ± 0.0073
8,ATAGTATATT,0.982 ± 0.044
9,ATAGTATGGG,0.99 ± 0.046
10,ATAGTCAGGG,0.988 ± 0.036
11,ATAGTCATAC,1.25 ± 0.099
12,ATAGTCTTTT,1.02 ± 0.034
13,ATAGTGATAT,1.06 ± 0.11
14,ATAGTGGTTT,1.02 ± 0.021
15,ATAGTGTGTT,0.989 ± 0.021
16,ATAGTTATGG,0.992 ± 0.011
17,ATAGTTGCGG,1.047 ± 0.0011
18,ATAGTTGGC,1.04 ± 0.07
19,ATAGTTGTGG,0.977 ± 0.025
20,ATAGTTGTTT,1 ± 0.019
21,ATATAAAAAG,1.02 ± 0.061
22,ATATAAGTGA,0.9543 ± 0.0063
23,ATATAATACG,1.01 ± 0.024
24,ATATACAGGG,1.06 ± 0.024
25,ATATACATGT,1.02 ± 0.038

row,Sequence,switch fluorescence ratio
1,ATATACTTCT,1.02 ± 0.025
2,ATATAGCACG,1.02 ± 0.033
3,ATATAGGTGG,0.999 ± 0.026
4,ATATATAGTT,1.043 ± 0.01
5,ATATATGAGG,0.974 ± 0.03
6,ATATATTTAG,0.996 ± 0.012
7,ATATCTCGAG,0.981 ± 0.02
8,ATATGAACGA,1.021 ± 0.0066
9,ATATGAGGGG,0.965 ± 0.027
10,ATATGAGGTT,0.977 ± 0.023
11,ATATGAGTGA,0.985 ± 0.013
12,ATATGATGTA,0.966 ± 0.014
13,ATATGATTAG,0.993 ± 0.021
14,ATATGCATGG,0.969 ± 0.014
15,ATATGCCCT,1.04 ± 0.03
16,ATATGCTTTC,0.994 ± 0.011
17,ATATGGAGCA,1.03 ± 0.046
18,ATATGGTGGT,1.03 ± 0.023
19,ATATGGTGTA,0.959 ± 0.021
20,ATATGGTGTT,1.01 ± 0.025
21,ATATGTCAAG,1.0025 ± 0.00017
22,ATATGTGACG,1 ± 0.033
23,ATATGTGGCT,0.99 ± 0.054
24,ATATGTGGGG,1.01 ± 0.011
25,ATATGTTATG,0.982 ± 0.015

# Source: the supplement of paper PMC10126150
